Where two headings read alike, the source gives them in different places.

This note sets out measurements from patent US20260201033A1 (LTZ THERAPEUTICS, published 2026).

The target of assay [1] is T1, Human C-type lectin domain family 5 member A (CLEC5A), endogenous on human monocytes and M0 macrophages (human, UniProt Q9NY25 1-188).
T1 construct: Endogenous CLEC5A on primary human monocytes and monocyte-derived M0 macrophages; also called MDL-1; M0 macrophages (CLEC5A+) cells
T1 sequence: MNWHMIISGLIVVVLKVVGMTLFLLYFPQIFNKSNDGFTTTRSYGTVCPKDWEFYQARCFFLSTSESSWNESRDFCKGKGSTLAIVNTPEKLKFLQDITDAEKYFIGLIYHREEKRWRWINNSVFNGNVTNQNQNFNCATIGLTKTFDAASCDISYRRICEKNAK
The assay is described as follows: flow cytometry on human M0 macrophages, anti-human IgG PE. For orientation: Flow cytometry measures light scatter and fluorescence of single cells or particles in a stream.

Assay [2] has as its target T2, Human CLEC5A His Tag protein (ACROBiosystems, Cat #: CLA-H5243) (human, UniProt Q9NY25 28-188, limits assumed).
T2 construct: Bought protein with a His tag; also called recombinant human CLEC5A protein
T2 sequence: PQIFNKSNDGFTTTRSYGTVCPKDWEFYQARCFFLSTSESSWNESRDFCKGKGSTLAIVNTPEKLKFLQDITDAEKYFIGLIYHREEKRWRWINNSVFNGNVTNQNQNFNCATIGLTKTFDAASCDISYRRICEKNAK
Nature of the assay: ELISA, plate coated with human CLEC5A. For orientation: ELISA stands for enzyme-linked immunosorbent assay.

Assay [3] deals with T3, EpCAM on DLD-1 cells (human, UniProt P16422 24-314).
T3 sequence (looked up): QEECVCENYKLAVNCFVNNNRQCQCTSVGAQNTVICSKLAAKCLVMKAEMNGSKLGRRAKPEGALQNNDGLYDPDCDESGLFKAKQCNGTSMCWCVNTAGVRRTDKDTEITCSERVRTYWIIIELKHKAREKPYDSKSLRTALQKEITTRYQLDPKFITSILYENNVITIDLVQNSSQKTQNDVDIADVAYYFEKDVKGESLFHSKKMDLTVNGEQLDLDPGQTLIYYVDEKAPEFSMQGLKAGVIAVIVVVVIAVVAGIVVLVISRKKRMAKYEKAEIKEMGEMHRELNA
Nature of the assay: cell-based or functional assay.

The target in assay [4] is T3, EpCAM on DLD-1 cells. The assay is described as follows: flow cytometry on DLD-1 cells (EPCAM+), anti-human IgG PE.
The target of assay [5] is T1, Human C-type lectin domain family 5 …. The assay is described as follows: flow cytometry on human M0 macrophages (CLEC5A+), anti-human IgG PE, MFI (PE).
The target is the same in assay [6]. The assay is described as follows: flow cytometry on human M0 macrophages, anti-human IgG PE. This is another data set of the same source.
In assay [7] the target is T2, Human CLEC5A His Tag protein …. The assay is described as follows: ELISA, plate coated with human CLEC5A. The source holds these as a separate data set.
Assay [8] has as its target T4, mouse CLEC5A (R&D Systems, Cat #: 8438-CL-050) (mouse, UniProt Q9R007 26-190, limits assumed).
T4 construct: Bought protein; also called recombinant mouse CLEC5A protein
T4 sequence: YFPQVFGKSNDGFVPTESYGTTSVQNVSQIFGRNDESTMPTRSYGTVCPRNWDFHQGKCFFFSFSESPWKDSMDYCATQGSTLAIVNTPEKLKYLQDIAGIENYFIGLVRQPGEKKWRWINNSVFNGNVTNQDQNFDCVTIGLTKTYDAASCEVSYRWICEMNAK
Nature of the assay: ELISA, plate coated with mouse CLEC5A.

In assay [9] the target is T5, recombinant human CLEC5A, His Tag (ACROBiosystems, Cat #: NC1-H52H4) (human, UniProt Q9NY25 28-188).
T5 construct: Analyte of the BLI assay; Its catalogue number differs from that of the ELISA antigen; also called human CLEC5A (BLI analyte)
T5 sequence: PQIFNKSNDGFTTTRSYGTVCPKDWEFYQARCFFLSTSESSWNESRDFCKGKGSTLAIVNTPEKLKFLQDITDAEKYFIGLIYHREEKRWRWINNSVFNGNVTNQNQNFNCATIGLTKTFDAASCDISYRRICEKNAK
Nature of the assay: BLI, antibody 10 ug/ml captured on anti-human IgG Fc probe, analyte hCLEC5a; table row hCLEC5a 1.56 nM; all four rows print the same value. Background: BLI is a label-free optical method that tracks binding on a fibre tip over time.

For assay [10], the target named is T5, recombinant human CLEC5A, His Tag …. The assay is described as follows: BLI, antibody 10 ug/ml captured on anti-human IgG Fc probe, analyte hCLEC5a; table row hCLEC5a 0.78 nM; all four rows print the same value.
Assay [11] shares this target. The assay is described as follows: BLI, antibody 10 ug/ml captured on anti-human IgG Fc probe, analyte hCLEC5a; table row hCLEC5a 3.12 nM; all four rows print the same value.
Assay [12] has the same target. Nature of the assay: BLI, antibody 10 ug/ml captured on anti-human IgG Fc probe, analyte hCLEC5a; table row hCLEC5a 6.25 nM; all four rows print the same value.
Another assay addresses EGFR on DLD-1 cells (UniProt P00533 25-1210, limits assumed). Nature of the assay: cell-based or functional assay.
The target of assay [13] is T6, human EGFR (ACROBiosystems, Cat #: EGR-H5222) (human, UniProt P00533 25-645).
T6 construct: Bought protein; also called recombinant human EGFR protein
Nature of the assay: ELISA, plate coated with human EGFR.

B1: EpCAM/5C7 (2+2 A) Fc-optimized (bispecific antibody, human IgG1, kappa)
heavy: QVQLQQSGAELVRPGTSVKVSCKASGYAFTNYLIEWVKQRPGQGLEWIGVINPGSGGTNYNEKFKGKATLTADKSSSTAYMQLSSLTSDDSAVYFCARDGPWFAYWGQGTLVTVSAASTKGPSVFPLAPSSKSTSGGTAALGCLVKDYFPEPVTVSWNSGALTSGVHTFPAVLQSSGLYSLSSVVTVPSSSLGTQTYICNVNHKPSNTKVDKKVEPKSCDKTHTCPPCPAPELLAGPSVFLFPPKPKDTLMISRTPEVTCVVVDVSHEDPEVKFNWYVDGVEVHNAKTKPREEQYNSTYRVVSVLTVLHQDWLNGKEYKCKVSNKALPLPEEKTISKAKGQPREPQVYTLPPSRDELTKNQVSLTCLVKGFYPSDIAVEWESNGQPENNYKTTPPVLDSDGSFFLYSKLTVDKSRWQQGNVFSCSVMHEALHNHYTQKSLSLSPGK
light: NIVMTQSPKSMSMSVGERVTLTCKASENVVTYVSWYQQKPEQSPKLLIYGASNRYTGVPDRFTGSGSATDFTLTISSVQAEDLADYHCGQGYSYPYTFGGGTKLEIKRTVAAPSVFIFPPSDEQLKSGTASVVCLLNNFYPREAKVQWKVDNALQSGNSQESVTEQDSKDSTYSLSSTLTLSKADYEKHKVYACEVTHQGLSSPVTKSFNRGECGGGGSGGGGSGGGGSAIVMTQTPSSKSVPVGDTVTINCQASESVDRNNRLAWFQQKPGQPPKLLIYTTSTLASGVPSRFKGSGSGTHFTLTISDVVPDDAATYYCAGYRGAHTDGDAFGCGTEVVVKGGGGSGGGGSGGGGSGGGGSQSLEESGGDLVKPGASLTLTCTASGFSFSRSSYMCWVRQAPGKCLEWIGCLSVGDGHTYYASWAKGRFTISKTSSTSVTLQMTRLTAADTATYFCARAPSYSGDGGHGYDLWGPGTLVTVSS
notes: also called EpCAM/CLEC5A (2+2 A) Fc-optimized antibody; EpCAM/CLEC5A bispecific antibody
For the molecule B1, the concentration for a half-maximal effect (EC50) in [1] is 7.35 nM; in [2] it was 0.064 µg/mL; with EpCAM on DLD-1 cells [4] it was 1.1 nM. Besides, the “IC50 (nM), DLD-1 cell killing by M0 macrophages” value with EpCAM on DLD-1 cells [3] worked out at 0.0035 nM.

B2: 5C7, chimeric rabbit/human IgG1 anti-CLEC5A antibody (Fc-silenced) (antibody, V domains shown)
VH: QSLEESGGDLVKPGASLTLTCTASGFSFSRSSYMCWVRQAPGKGLEWIGCLSVGDGHTYYASWAKGRFTISKTSSTSVTLQMTRLTAADTATYFCARAPSYSGDGGHGYDLWGPGTLVTVSS
VL: AIVMTQTPSSKSVPVGDTVTINCQASESVDRNNRLAWFQQKPGQPPKLLIYTTSTLASGVPSRFKGSGSGTHFTLTISDVVPDDAATYYCAGYRGAHTDGDAFGGGTEVVVK
notes: also called ch5C7; 5C7 Fc-silenced
Consider B2, for which the 50% effective concentration (EC50) amounted to 0.49 nM in assay [1]; 3.93 nM in assay [6]; 0.158 µg/mL in [2]; 0.9 nM in assay [7]; 0.194 nM in assay [8]. In addition, the “EC50 (read off the curve)” value in assay [5] was ~0.8 nM. The Kd in assay [9], in assay [10], in [11] and in assay [12] was 0.15 nM each time. In addition, the dissociation rate constant (koff) in assay [9], in assay [10], in assay [11] and in [12] was 0.000189 s⁻¹ each time. Moreover, the association rate constant (kon) in assay [9], in [10], in assay [11] and in assay [12] was 1.26e+06 M⁻¹ s⁻¹ in each case.

B3: EGFR2/5C7 (2+2 A) Fc-optimized (bispecific antibody, human IgG1, kappa)
heavy: QVQLQQSGAEVKKPGSSVKVSCKASGYTFTNYYIYWVRQAPGQGLEWIGGINPTSGGSNFNEKFKTRVTITADESSTTAYMELSSLRSEDTAFYFCTRQGLWFDSDGRGFDFWGQGTTVTVSSASTKGPSVFPLAPSSKSTSGGTAALGCLVKDYFPEPVTVSWNSGALTSGVHTFPAVLQSSGLYSLSSVVTVPSSSLGTQTYICNVNHKPSNTKVDKKVEPKSCDKTHTCPPCPAPELLAGPSVFLFPPKPKDTLMISRTPEVTCVVVDVSHEDPEVKFNWYVDGVEVHNAKTKPREEQYNSTYRVVSVLTVLHQDWLNGKEYKCKVSNKALPLPEEKTISKAKGQPREPQVYTLPPSRDELTKNQVSLTCLVKGFYPSDIAVEWESNGQPENNYKTTPPVLDSDGSFFLYSKLTVDKSRWQQGNVFSCSVMHEALHNHYTQKSLSLSPGK
light: DIQMTQSPSSLSASVGDRVTITCRSSQNIVHSNGNTYLDWYQQTPGKAPKLLIYKVSNRFSGVPSRFSGSGSGTDFTFTISSLQPEDIATYYCFQYSHVPWTFGQGTKLEIKRTVAAPSVFIFPPSDEQLKSGTASVVCLLNNFYPREAKVQWKVDNALQSGNSQESVTEQDSKDSTYSLSSTLTLSKADYEKHKVYACEVTHQGLSSPVTKSFNRGECGGGGSGGGGSGGGGSAIVMTQTPSSKSVPVGDTVTINCQASESVDRNNRLAWFQQKPGQPPKLLIYTTSTLASGVPSRFKGSGSGTHFTLTISDVVPDDAATYYCAGYRGAHTDGDAFGCGTEVVVKGGGGSGGGGSGGGGSGGGGSQSLEESGGDLVKPGASLTLTCTASGFSFSRSSYMCWVRQAPGKCLEWIGCLSVGDGHTYYASWAKGRFTISKTSSTSVTLQMTRLTAADTATYFCARAPSYSGDGGHGYDLWGPGTLVTVSS
notes: also called EGFR/CLEC5A (2+2 A) Fc-optimized antibody with EGFR portion of Nimotuzumab (EGFR2)
Turning to B3, the EC50 in [1] amounted to 19.5 nM; in [2], 0.081 µg/mL; in [13] it was 0.12 µg/mL. For the same molecule, the “IC50 (nM), DLD-1 cell killing by M0 macrophages” value in the assay with EGFR on DLD-1 cells is 0.00471 nM.

A word on the EC50: it is the concentration giving half of the maximal effect. In general, EC50 (read off the curve) refers to the concentration at which the effect is half-maximal. The term Kd denotes the concentration at which binding is half-saturated. Usually koff stands for a measure of how fast the partners let go of each other. One may read the kon as the second-order rate constant of association.
